Kd, koff and kon data for one molecule are collected here from patent US20250034271A1.

For orientation: Kd means a measure of binding affinity in units of concentration. Read a high Kd as lower affinity. As usually defined, the koff is a measure of how fast the partners let go of each other. As a reminder, the kon is the rate constant with which the complex forms. Low values mean slow association, high ones fast association.

This assay deals with Histidine-tagged human CD40 protein (hCD40-His) (human) (UniProt P25942). The assay is described as follows: SPR, Biacore T200; antibody on Protein A chip, hCD40-His injected; 1:1 fit. A general note: Surface plasmon resonance follows binding to a sensor surface in real time, without labels.
Histidine-tagged human CD40 protein (hCD40-His) (human), sequence (P25942 21-193 limits assumed): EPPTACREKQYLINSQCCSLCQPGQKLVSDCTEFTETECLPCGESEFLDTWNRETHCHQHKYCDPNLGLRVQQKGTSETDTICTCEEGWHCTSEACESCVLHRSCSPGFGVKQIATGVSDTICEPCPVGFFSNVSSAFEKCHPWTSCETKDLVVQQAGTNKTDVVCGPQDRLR

B1: Dacetuzumab (antibody, part only; not given: constant regions, V domains shown, not shown: another chain or arm of the molecule)
VH: EVQLVESGGGLVQPGGSLRLSCAASGYSFTGYYIHWVRQAPGKGLEWVARVIPNAGGTSYNQKFKGRFTLSVDNSKNTAYLQMNSLRAEDTAVYYCAREGIYWWGQGTLVTVSS
VL: DIQMTQSPSSLSASVGDRVTITCRSSQSLVHSNGNTFLHWYQQKPGKAPKLLIYTVSNRFSGVPSRFSGSGSGTDFTLTISSLQPEDFATYFCSQTTHVPWTFGQGTKVEIK
Molecule B1 gave a Kd of 20 nM, a koff of 0.00833 s⁻¹ and a kon of 417000 M⁻¹ s⁻¹.
